Here are results for 30 sequences from the nanobody polyreactivity screen of Harvey et al. (2022).

The nature of the series: yeast display, Sf9 membrane polyspecificity reagent, FACS + sequencing; frameworks hold sequencing errors. In outline: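 Using colony PCR, genes from sorted yeast display clones were amplified, then sequenced on MiSeq at 2 × 250 and filtered by CDR length. The clones had been stained with 10% biotinylated, detergent-solubilized Sf9 membrane reagent for 1 hour at 4 °C and sorted by FACS into low and high (top ~1%) gates on anti-HA and streptavidin fluorescence. Polyreactivity labels come from the gate of origin.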
As for “QVKHVESVGRLVQAGGSLRLSSASSGRIFRSYAMGCYRQAPGKESEYVAAISRSGGRTYYADSVKGRFTISRDNAKNTVYLQMNSLKPEDSAVYYCAVVDYHVHSSDYNYWGQGTQVTVSS”, the “polyreactivity (PSR sort gate)” value was “high polyreactivity”.

Regarding “QVKLEESGGGLLQAGGSLRLSCAASGRIIGDYAMGSYRQAPGKERELVAANDRGGSTHYADSVKGRYTISRDNAKNTFYFQMNSLKPEDTAVYYCNLDVWANIKSRCIFAGWYDYWGQGTQVTVSS”, the “polyreactivity (PSR sort gate)” value was “low polyreactivity”. As for “QVKLLDSGGGLVQAGGSLRLTSAASGRIFYTNAMGWYRQEPGKERELVAVISWGGDTTYYADSVKGRFTISRDNAKNTVYLQMTSLKPEDTAVYYCNADWGATYEIYDSWGQGTQVTVST”, the “polyreactivity (PSR sort gate)” value is recorded as “low polyreactivity”. To “QVKLLESGGGLVQAGGSLLLSCAASGSIFDGYSMVWYRQAPGKEREFVASIRFSTGRTYYADSVKGRFTISRDNAKNTVYLQMNSLKPEDTAVYYCNAPQGFVWRYSSWGPYDYWGQGTQVTVSS” belongs “high polyreactivity”; to “QVKLVESAGGLVKAGGSLRLSSAASGITFNLYAMGCYSQSPGKERELVAAISWSGGSTYYADSVKGRFTISREHAKNTVYLQMNSLNQEDTAVYYCAAAWDYSAPYTYIYDYWGLGTQVTVSS”, “low polyreactivity”. The same measure for “QVKLVESAVGLVQAGGSLRLSCAASGRTFCSYAMGWYRQAPGKERELVAAISRGGSRTYYADSVKGRFTISRDNAKNTVYLQMNSLKPEDTAVYYCAADPTASGHFLGQVDYWGQGTQVTVSS”: “high polyreactivity”; for “QVKLVESAVRLVQAGGSLRLSCAASASTLYRYSMGLYRQAPGKERELVAAISSSGGSSYYADSVKGRFTISRDNAKNTVYLQMNRLKQEDTAVYYCSAAALRTIGAGYRYGNWGQGTQVTVSS”: “high polyreactivity”. As to “QVKLVESGAGLVQAGASLRLSCAASGLIFHQYAMGWYRQAPGKERELVAAITRSGTRTYYADSVKGRFTISRDNEKNTVYLQMNSLKPEDTAVYYCAAADTQGVSMDYWGQGTQVTVSS”, the “polyreactivity (PSR sort gate)” value was “high polyreactivity”. The same measure for “QVKLVESGGALVQAGGSLRLSCAASGRNFSSYAMGRYRQAPGKERYLVARISSSGGGTSYADSVKGRFTISRDNAKNTVYLQMNSLKPEDTAVYYCAAEDQYYRYFFSYEYWGQGTQVTVSS”: “high polyreactivity”. To “QVKLVESGGCLVQAGCSLRLSCAASGRTFHGYAMGWYRQAPGTERELVAAITVSGDSTYYADSVKGRFTISRDNAKNTVYLQMNSLKPEDTAVYYCNASFREPSTPVYLVAFDYWGQGTQVTVSS” belongs “low polyreactivity”; to “QVKLVESGGGLVQAGGSIRLSCAASGSTFATYAMGCYRQAPGKERELVAAITSGGSTDYADSVKGRFTISRDNAKNTVYLQMNSQKPEDTAVYYCNATWVLLSYYYLFWCYDYWGQGTQVTVSS”, “low polyreactivity”; to “QVKLVESGGGLVQAGGSISLTCAASGSIFYKYVMGWYRQAPGKERELVAAISRGGGSTYYADSVKGRFTISRDNAKNTVYLQMNSLKPEDTAVYYCYAVGRPRYGHGFDHWGQGTQVTVSS”, “high polyreactivity”.

“QVKLVESGGGLVQAGGSLRISCAASGRIFKIYAMGWYRQAPGKERELVAAISRGGRTYYADSVKGRFTISRDNAKNTVDLQMNSLKPEDTEVYYCAADLLISPEFYYWGQGTQVTVSS”: the “polyreactivity (PSR sort gate)” value is listed as “high polyreactivity”. To “QVKLVESGGGLVQAGGSLRLSCAASGFTFGRYAMGWYRQAPGKERELVAAITRRGGSTYYADSVKGRFTISRDNAKNTVYLQMNSLKPEDTAVYYCNKVKQTRTDHDYWGQGTQVTVSS” belongs “high polyreactivity”; to “QVKLVESGGGLVQAGGSLRLSCAASGFTIANYAMGWYRQAPGKERELVAAITTSGSTYYADSVKGRFTISRDNAKNTVYLQMNSLKPEDTAVYYCAVSIWVWFASGFDYWGQGTQVTVSS”, “high polyreactivity”; to “QVKLVESGGGLVQAGGSLRLSCAASGGTFGSNAMGWYRQAPGKERHLVAAISTTGGTTYYADSVKGRFTISRDNAKNTVYLQMNSLKPEDTAVYYCAKDGYVYGDWYTYAYDYWGQGTQVTVSS”, “low polyreactivity”. For the sequence “QVKLVESGGGLVQAGGSLRLSCAASGIIFSGNAMGWYRQAPGKERELVAAITRGGRTYYADSVKGRFTISRDNAKNTVYLQMNSLKPEDTAVYYCAADDPHRAREYDYWGQGTQVTVSS”, the “polyreactivity (PSR sort gate)” value is on record as “high polyreactivity”. The same measure for “QVKLVESGGGLVQAGGSLRLSCAASGLTFRSYAMRWYRQAPGKERELVAAITRSGGSTYYADSVKGRFTISRDNAKNTVYLQMNRLKPEDTAVYYCAADYGRTLTGGDYWGQGTKVTVSS”: “high polyreactivity”. Regarding “QVKLVESGGGLVQAGGSLRLSCAASGNIFSIYAMGWYRQAPGKERELVAAITARGGRTYYADSVKGRFTFSRDNAKNTVYLQMNSLKPEDTAVYYCNAVRSTKGYWVPFGGDYWGQGTQGTVSS”, the “polyreactivity (PSR sort gate)” value was “low polyreactivity”.

Turning to “QVKLVESGGGLVQAGGSLRLSCAASGRIFWSNAMVWYRQAPGKERELVAAISRRGGRTYYADSVKGRFTISRDNAKNTVYLQMNSLKPEDTAVYYCAADGTADYDYWGQGTQVTVSS”, the “polyreactivity (PSR sort gate)” value was “high polyreactivity”. Regarding “QVKLVESGGGLVQAGGSLRLSCAASGSIFGSNAMGWYRQAPGKERELVAAITGRGGRTYYADSVKGRFTISRDNAKNTVYLQMNSLKPEDTAVYYCAAIRREVVAGDYWGQGTQVTVSS”, the “polyreactivity (PSR sort gate)” value was “high polyreactivity”. The same measure for “QVKLVESGGGLVQAGGSLRLSCAASGTFYYNTMGWYIQAPGTERELVAAITSGGRTYADSVKGRFTISRDNAKNTVYLQMNSLKPEDTAVYYCAASWYFFSPGGTFGYWGQGTQVTVSS”: “low polyreactivity”; for “QVKLVESGGGLVQAGGSLRLSCAAYGSTFAGYAMGWYRQAPGKERELVAAISVSGGSTDYADSVKGRFTISRDNAKNTVYLQMNSLKPEDTAVYYCAAVYVRNQWWRNYYWGQGTQVTVSS”: “low polyreactivity”; for “QVKLVESGGGLVQAGGSLRLSCADSGSIFVPNTRGWYRQAPGKERELVAAITAGGSTDYADSVKGRFTISRDNAKNTVYLQMNSLKPEDTAVYYCNADVYSWVSGKEGDYWGQGTQVTVTS”: “low polyreactivity”. Consider “QVKLVESGGGLVQAGGSLRLSCASSGFTFFHYAKGWYRQAPGKERELVAAISWSGGSTYYADTVKGRFTISRDNAKNTVYLQMNSLKPEDTAVYYCAADGGSTAFDYWGQGTQVTVSS”, for which the “polyreactivity (PSR sort gate)” value is on record as “low polyreactivity”.

Consider “QVKLVESGGGLVQAGGSLRLSCPASGITFVYYAMGGYRQAPGKERELVAAISSAGSSTYYADSVKGRFTISRDNAKNTVYLQMNSLKPEDTAVYYCAATYYVPRLQWMDYWGQGTQVTVSS”, for which the “polyreactivity (PSR sort gate)” value is “low polyreactivity”. The same measure for “QVKLVESGGGLVQAGGSLRLSSADSGFIFRRYAMGWYRQAPGKERELVAAINYSGGSTYYADSVKGRFTISRDHAKNTVYLQMNSPKPEYTAVYYCNAYGLRYYEYDYWGQGTQVTVSS”: “low polyreactivity”. To “QVKLVESGGGLVQAGGSLRLTCAASGIIFSWYAMGWYRQAPGKERELVAAISWSGGRTYYADSVKGRFTISRDNAKNSFYLQMNSLKPEDTAVYYCAAERNLFSHWEARYFWGQGTQVTVSS” belongs “high polyreactivity”; to “QVKLVESGGGLVQAGGSLRLTCAAYGFTFAGYTLGCYRQAPGKERELVAAITSSGGSTYYADYVKGRFTISRDNAKNTVYLQMNSLKPEDTAVYYCAARSHSTYYYWGQGTQVTVSS”, “high polyreactivity”; to “QVKLVESGGGLVQARGSLRLSCAASGRIFTIYAKGWYRPAPGKERELVAAITRGGNTNYADSVKGRFTISRDNAKNTVYLQMNSLKPEDTAVYNCAARANVYTKKRDYWGQGTQVTVSS”, “high polyreactivity”.
